Experimental data reported in patent US7727972B2, “Methods for determining absorption of cobalamin or analogues thereof” (DrugTech Corporation, priority 2004, dated 2010).

T1: TC-bound 57Co cobalamin (cyanocobalamin-transcobalamin complex) (Homo sapiens, UniProt P20062)
T1 construct: from tissue; host or cells: human donor serum
T1 sequence (P20062 19-427): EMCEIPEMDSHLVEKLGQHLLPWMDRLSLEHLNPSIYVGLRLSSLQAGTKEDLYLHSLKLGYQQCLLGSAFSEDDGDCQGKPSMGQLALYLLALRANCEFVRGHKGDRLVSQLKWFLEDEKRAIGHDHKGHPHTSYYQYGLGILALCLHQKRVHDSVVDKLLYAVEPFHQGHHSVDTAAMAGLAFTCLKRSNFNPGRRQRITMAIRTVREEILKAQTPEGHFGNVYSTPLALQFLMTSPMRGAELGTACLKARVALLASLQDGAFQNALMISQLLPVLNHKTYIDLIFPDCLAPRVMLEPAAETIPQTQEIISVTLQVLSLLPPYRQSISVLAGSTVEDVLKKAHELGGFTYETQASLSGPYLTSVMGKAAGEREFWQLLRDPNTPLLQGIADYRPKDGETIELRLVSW


Legend:
[1] = target: T1, TC-bound 57Co cobalamin (cyanocobalamin-transcobalamin complex); experiment: Release of 57Co cyanocobalamin from transcobalamin using proteases; format: biochemical; details: 50 U protease, human donor serum, TC captured on antibody-coated magnetic microspheres; 15 min (chymotrypsin 45 min); FIG. 1
Method: 25 μl tracer solution and 2.5 μl cyanocobalamin solution were added to 400 μl human donor serum. Tris-HCl 0.1 M pH 7.4 was run as a control. After addition of 50 μl capturing reagent, the samples were incubated on a coulter mixer for 1 hour at room temperature. The samples were placed in a magnetic rack for 3 minutes for separation of the capturing reagent. Subsequently, the rack was inverted and incubated for another 3 minutes. The supernatant was discarded and 500 μl of washing buffer was added. The samples were vortexed and placed in the magnetic rack for 3 minutes. Subsequently, the rack was inverted again and the samples were incubated for another 3 minutes. After separation, the washing buffer was discarded and 50 U of subtilisin Carlsberg, in 200 μl Tris-HCl 0.1 M pH 7.4 5 mM Ca^2+, was added. After incubation for 15 minutes at 50° C. in a shaking water bath, the samples were put on a magnetic rack for 3 minutes for separation of the capturing reagent. The rack was inverted and incubated for another 3 minutes. The supernatant was discarded and the pellet was counted for 5 minutes on a gamma counter.
Similar experiments were performed with proteinase K (50 U) in Tris-HCl 0.1 M pH 7.4 5 mM Ca^2+ incubated at 37° C., thermolysin (50 U) in Tris-HCl 0.1 M pH 7.4 5 mM Ca^2+ 5 mM Zn^2+, and chymotrypsin (50 U) in Tris-HCl 0.1 M pH 7.4 incubated for 45 min. at 37° C. […]

[2] = tested on: Anti haptocorrin antibodies (ELISA); experiment: Cross-reactivity of the haptocorrin ELISA towards other cobalamin binding proteins; set-up: species or system rabbit; details: 100 nmol/L in the assay mixture
Method: Antibodies. Anti haptocorrin was produced by DakoCytomation A/S, Denmark by immunising rabbits with 200 μg pure haptocorrin produced as previously described (12) and deglycosylated as described above. The gamma globulin fraction was pre-pared (13) from serum obtained after 7 immunisations.
ELISA. The principle of the ELISA assay used was an immobilised capture antibody (0.1 ug gamma globulin/well, rabbit nr F7773) catching the analyte and a biotinylated detection antibody (gamma globulin 3 ug/L, rabbit nr 7772) visualised by avidin/Horse Radish Peroxidase (HRP). Colour development by addition of 3,3′,5,5′-tetramethyl-benzidin was proportional to the concentration of analyte. The assay procedure was as previously described for transcobalamin (14, 15). In brief, calibrator, sample or control (100 μL, final dilution 1:30) was incubated for 1 hour at room temperature prior to washing and incubation for 30 min with the biotinylated detection antibody. The attached biotinylated antibody was detected employing avidin/HRP and colour development was determined by measuring the absorbance at 420 nm and correcting for the absorbance at 620 nm. The calibrator employed was deglycosylated pure human haptocorrin. All samples were run in true duplicates, where deglycosylation was performed on two independent samples.
Samples. […]

release of cyanocobalamin from its complex with transcobalamin (counts remaining in the sample) [1] | cross-reactivity in haptocorrin ELISA [2] | Molecule
most effective | – | subtilisin Carlsberg: subtilisin Carlsberg from Bacillus licheniformis (EC 3.4.21.62) (Sigma Aldrich) (protein, UniProt P00780 106-379, looked up) Subtilisin Carlsberg: AQTVPYGIPLIKADKVQAQGFKGANVKVAVLDTGIQASHPDLNVVGGASFVAGEAYNTDGNGHGTHVAGTVAALDNTTGVLGVAPSVSLYAVKVLNSSGSGSYSGIVSGIEWATTNGMDVINMSLGGASGSTAMKQAVDNAYAKGVVVVAAAGNSGSSGNTNTIGYPAKYDSVIAVGAVDSNSNRASFSSVGAELEVMAPGAGVYSTYPTNTYATLNGTSMASPHVAGAAALILSKHPNLSASQVRNRLSSTATYLGSSFYYGKGLINVEAAAQ
most effective | – | Proteinase K: proteinase K from Tritrachium album (EC 3.4.21.64) (Sigma Aldrich) (protein, UniProt P06873 106-384, looked up) Proteinase K: AAQTNAPWGLARISSTSPGTSTYYYDESAGQGSCVYVIDTGIEASHPEFEGRAQMVKTYYYSSRDGNGHGTHCAGTVGSRTYGVAKKTQLFGVKVLDDNGSGQYSTIIAGMDFVASDKNNRNCPKGVVASLSLGGGYSSSVNSAAARLQSSGVMVAVAAGNNNADARNYSPASEPSVCTVGASDRYDRRSSFSNYGSVLDIFGPGTSILSTWIGGSTRSISGTSMATPHVAGLAAYLMTLGKTTAASACRYIADTANKGDLSNIPFGTVNLLAYNNYQA
– | No cross-reactivity | transcobalamin: cobalamin binding protein; pure TC dissolved in phosphate buffer 0.1 M containing albumin 0.1% (protein, UniProt P20062 19-427, looked up) Transcobalamin-2: EMCEIPEMDSHLVEKLGQHLLPWMDRLSLEHLNPSIYVGLRLSSLQAGTKEDLYLHSLKLGYQQCLLGSAFSEDDGDCQGKPSMGQLALYLLALRANCEFVRGHKGDRLVSQLKWFLEDEKRAIGHDHKGHPHTSYYQYGLGILALCLHQKRVHDSVVDKLLYAVEPFHQGHHSVDTAAMAGLAFTCLKRSNFNPGRRQRITMAIRTVREEILKAQTPEGHFGNVYSTPLALQFLMTSPMRGAELGTACLKARVALLASLQDGAFQNALMISQLLPVLNHKTYIDLIFPDCLAPRVMLEPAAETIPQTQEIISVTLQVLSLLPPYRQSISVLAGSTVEDVLKKAHELGGFTYETQASLSGPYLTSVMGKAAGEREFWQLLRDPNTPLLQGIADYRPKDGETIELRLVSW
